Measured values reported in publication doi:10.1101/2022.10.17.512557.

Target: proteasomal catalytic (20S) particle (rat (endogenous in cultured cortical neurons)) (UniProt P48004)
Experiment: native gel or EMSA

Sequence of UniProt P48004 (P48004 whole entry, looked up): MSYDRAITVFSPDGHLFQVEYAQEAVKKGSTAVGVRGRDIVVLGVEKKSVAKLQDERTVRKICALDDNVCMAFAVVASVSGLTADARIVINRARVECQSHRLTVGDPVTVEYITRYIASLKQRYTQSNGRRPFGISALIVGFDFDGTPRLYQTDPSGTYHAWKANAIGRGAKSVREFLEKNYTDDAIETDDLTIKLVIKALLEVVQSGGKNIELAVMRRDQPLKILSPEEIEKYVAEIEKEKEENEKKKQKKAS

proteasomal regulatory (19S) particle (from UniProt P62193 1-440) (complex)
percent of total 20S in the free 20S band (neurite fraction): 50%
